Laboratory results from IntAct's records for PubMed 18378898.

B1: Growth/differentiation factor 11 (Mus musculus), Q9Z1W4 (parent)
chain: MVLAAPLLLGFLLLALELRPRGEAAEGPAAAAAAAAAAAGVGGERSSRPAPSAPPEPDGCPVCVWRQHSRELRLESIKSQILSKLRLKEAPNISREVVKQLLPKAPPLQQILDLHDFQGDALQPEDFLEEDEYHATTETVISMAQETDPAVQTDGSPLCCHFHFSPKVMFTKVLKAQLWVYLRPVPRPATVYLQILRLKPLTGEGTAGGGGGGRRHIRIRSLKIELHSRSGHWQSIDFKQVLHSWFRQPQSNWGIEINAFDPSGTDLAVTSLGPGAEGLHPFMELRVLENTKRSRRNLGLDCDEHSSESRCCRYPLTVDFEAFGWDWIIAPKRYKANYCSGQCEYMFMQKYPHTHLVQQANPRGSAGPCCTPTKMSPINMLYFNDKQQIIYGKIPGMVVDRCGCS
partner: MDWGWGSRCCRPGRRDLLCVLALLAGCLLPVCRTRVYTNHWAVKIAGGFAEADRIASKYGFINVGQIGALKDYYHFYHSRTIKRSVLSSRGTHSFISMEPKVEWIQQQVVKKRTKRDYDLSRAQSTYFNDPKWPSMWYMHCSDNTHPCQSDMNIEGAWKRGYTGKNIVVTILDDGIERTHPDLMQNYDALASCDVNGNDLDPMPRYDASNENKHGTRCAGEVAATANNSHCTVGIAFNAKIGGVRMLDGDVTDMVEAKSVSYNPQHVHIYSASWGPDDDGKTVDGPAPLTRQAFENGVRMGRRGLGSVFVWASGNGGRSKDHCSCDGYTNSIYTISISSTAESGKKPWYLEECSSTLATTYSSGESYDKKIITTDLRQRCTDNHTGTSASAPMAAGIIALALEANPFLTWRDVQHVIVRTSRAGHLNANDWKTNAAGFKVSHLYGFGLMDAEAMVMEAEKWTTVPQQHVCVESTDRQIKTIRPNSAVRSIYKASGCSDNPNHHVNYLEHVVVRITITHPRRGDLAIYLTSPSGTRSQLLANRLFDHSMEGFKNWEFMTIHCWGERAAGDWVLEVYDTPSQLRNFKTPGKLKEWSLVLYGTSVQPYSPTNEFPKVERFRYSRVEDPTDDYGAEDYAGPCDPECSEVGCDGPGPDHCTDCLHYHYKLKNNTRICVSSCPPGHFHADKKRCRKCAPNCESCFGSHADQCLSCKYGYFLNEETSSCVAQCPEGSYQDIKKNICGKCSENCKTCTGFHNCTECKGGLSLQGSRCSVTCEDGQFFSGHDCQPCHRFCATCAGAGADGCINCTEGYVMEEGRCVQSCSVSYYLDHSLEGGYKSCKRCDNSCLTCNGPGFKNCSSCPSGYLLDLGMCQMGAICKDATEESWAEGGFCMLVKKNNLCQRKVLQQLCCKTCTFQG
B2: Growth/differentiation factor 11 (Mus musculus), Q9Z1W4 (parent)
chain: B1 chain
B3: Growth/differentiation factor 11 (Mus musculus), Q9Z1W4 (parent)
chain: B1 chain
partner: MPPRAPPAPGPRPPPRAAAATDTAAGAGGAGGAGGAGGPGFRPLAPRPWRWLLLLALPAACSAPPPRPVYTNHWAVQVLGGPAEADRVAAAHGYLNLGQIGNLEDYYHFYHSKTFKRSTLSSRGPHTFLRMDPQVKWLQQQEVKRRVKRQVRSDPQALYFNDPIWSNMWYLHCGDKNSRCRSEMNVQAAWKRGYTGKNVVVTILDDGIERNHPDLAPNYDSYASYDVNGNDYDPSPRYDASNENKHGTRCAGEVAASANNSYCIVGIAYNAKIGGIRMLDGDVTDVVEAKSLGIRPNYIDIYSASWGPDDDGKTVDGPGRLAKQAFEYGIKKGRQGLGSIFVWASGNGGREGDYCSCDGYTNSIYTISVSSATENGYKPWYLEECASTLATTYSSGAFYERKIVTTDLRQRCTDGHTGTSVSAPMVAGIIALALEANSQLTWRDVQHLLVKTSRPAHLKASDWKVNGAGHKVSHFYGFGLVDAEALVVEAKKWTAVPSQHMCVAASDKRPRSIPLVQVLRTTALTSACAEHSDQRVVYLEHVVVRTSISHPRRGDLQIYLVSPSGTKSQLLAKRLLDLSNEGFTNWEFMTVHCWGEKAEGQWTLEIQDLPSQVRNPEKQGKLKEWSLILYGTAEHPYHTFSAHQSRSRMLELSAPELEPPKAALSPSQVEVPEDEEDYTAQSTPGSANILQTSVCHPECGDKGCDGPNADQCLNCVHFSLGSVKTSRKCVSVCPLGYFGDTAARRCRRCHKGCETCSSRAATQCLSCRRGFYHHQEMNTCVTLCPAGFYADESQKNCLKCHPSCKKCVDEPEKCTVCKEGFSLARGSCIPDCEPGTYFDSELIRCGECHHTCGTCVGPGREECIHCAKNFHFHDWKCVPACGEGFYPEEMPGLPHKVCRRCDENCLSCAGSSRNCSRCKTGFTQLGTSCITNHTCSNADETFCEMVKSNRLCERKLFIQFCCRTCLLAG
B4: Growth/differentiation factor 11 (Mus musculus), Q9Z1W4 (parent)
chain: B1 chain
partner: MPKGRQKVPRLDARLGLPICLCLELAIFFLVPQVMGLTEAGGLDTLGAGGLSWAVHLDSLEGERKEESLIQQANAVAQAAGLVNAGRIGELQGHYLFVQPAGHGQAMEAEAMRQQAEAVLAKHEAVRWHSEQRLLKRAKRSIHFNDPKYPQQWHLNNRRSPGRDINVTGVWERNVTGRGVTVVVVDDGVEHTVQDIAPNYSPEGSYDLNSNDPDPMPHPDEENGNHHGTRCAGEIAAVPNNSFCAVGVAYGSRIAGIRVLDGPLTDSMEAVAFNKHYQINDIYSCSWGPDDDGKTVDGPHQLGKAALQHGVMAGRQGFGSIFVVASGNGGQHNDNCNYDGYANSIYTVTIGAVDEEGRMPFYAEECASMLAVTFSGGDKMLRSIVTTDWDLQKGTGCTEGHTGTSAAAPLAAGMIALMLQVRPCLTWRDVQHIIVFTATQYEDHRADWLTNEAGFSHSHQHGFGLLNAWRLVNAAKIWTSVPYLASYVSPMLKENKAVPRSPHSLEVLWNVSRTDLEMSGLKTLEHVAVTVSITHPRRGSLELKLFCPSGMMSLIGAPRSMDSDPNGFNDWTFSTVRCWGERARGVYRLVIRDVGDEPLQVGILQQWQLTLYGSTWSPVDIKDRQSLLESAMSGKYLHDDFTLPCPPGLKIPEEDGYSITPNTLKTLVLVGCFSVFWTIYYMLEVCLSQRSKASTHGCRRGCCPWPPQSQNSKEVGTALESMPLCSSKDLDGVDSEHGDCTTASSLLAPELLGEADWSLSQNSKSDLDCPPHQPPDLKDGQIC

Variants of: B1
Details: with Pcsk5, P41413-2

effect of a mutation on the interaction	Variant
increasing interaction	MVLAAPLLLGFLLLALELRPRGEAAEGPAAAAAAAAAAAGVGGERSSRPAPSAPPEPDGCPVCVWRQHSRELRLESIKSQILSKLRLKEAPNISREVVKQLLPKAPPLQQILDLHDFQGDALQPEDFLEEDEYHATTETVISMAQETDPAVQTDGSPLCCHFHFSPKVMFTKVLKAQLWVYLRPVPRPATVYLQILRLKPLTGEGTAGGGGGGRRHIRIRSLKIELHSRSGHWQSIDFKQVLHSWFRQPQSNWGIEINAFDPSGTDLAVTSLGPGAEGLHPFMELRVLENTKRSRRDLGLDCDEHSSESRCCRYPLTVDFEAFGWDWIIAPKRYKANYCSGQCEYMFMQKYPHTHLVQQANPRGSAGPCCTPTKMSPINMLYFNDKQQIIYGKIPGMVVDRCGCS [N297D]

Variants of: B2
Details: with furin_human FURIN

effect of a mutation on the interaction	Variant
increasing interaction	MVLAAPLLLGFLLLALELRPRGEAAEGPAAAAAAAAAAAGVGGERSSRPAPSAPPEPDGCPVCVWRQHSRELRLESIKSQILSKLRLKEAPNISREVVKQLLPKAPPLQQILDLHDFQGDALQPEDFLEEDEYHATTETVISMAQETDPAVQTDGSPLCCHFHFSPKVMFTKVLKAQLWVYLRPVPRPATVYLQILRLKPLTGEGTAGGGGGGRRHIRIRSLKIELHSRSGHWQSIDFKQVLHSWFRQPQSNWGIEINAFDPSGTDLAVTSLGPGAEGLHPFMELRVLENTKRSRRDLGLDCDEHSSESRCCRYPLTVDFEAFGWDWIIAPKRYKANYCSGQCEYMFMQKYPHTHLVQQANPRGSAGPCCTPTKMSPINMLYFNDKQQIIYGKIPGMVVDRCGCS [N297D]

Variants of: B3
Details: with PCSK6, P29122-1

effect of a mutation on the interaction	Variant
increasing interaction	MVLAAPLLLGFLLLALELRPRGEAAEGPAAAAAAAAAAAGVGGERSSRPAPSAPPEPDGCPVCVWRQHSRELRLESIKSQILSKLRLKEAPNISREVVKQLLPKAPPLQQILDLHDFQGDALQPEDFLEEDEYHATTETVISMAQETDPAVQTDGSPLCCHFHFSPKVMFTKVLKAQLWVYLRPVPRPATVYLQILRLKPLTGEGTAGGGGGGRRHIRIRSLKIELHSRSGHWQSIDFKQVLHSWFRQPQSNWGIEINAFDPSGTDLAVTSLGPGAEGLHPFMELRVLENTKRSRRDLGLDCDEHSSESRCCRYPLTVDFEAFGWDWIIAPKRYKANYCSGQCEYMFMQKYPHTHLVQQANPRGSAGPCCTPTKMSPINMLYFNDKQQIIYGKIPGMVVDRCGCS [N297D]

Variants of: B4
Details: with pcsk7_rat Pcsk7, Q62849

effect of a mutation on the interaction	Variant
increasing interaction	MVLAAPLLLGFLLLALELRPRGEAAEGPAAAAAAAAAAAGVGGERSSRPAPSAPPEPDGCPVCVWRQHSRELRLESIKSQILSKLRLKEAPNISREVVKQLLPKAPPLQQILDLHDFQGDALQPEDFLEEDEYHATTETVISMAQETDPAVQTDGSPLCCHFHFSPKVMFTKVLKAQLWVYLRPVPRPATVYLQILRLKPLTGEGTAGGGGGGRRHIRIRSLKIELHSRSGHWQSIDFKQVLHSWFRQPQSNWGIEINAFDPSGTDLAVTSLGPGAEGLHPFMELRVLENTKRSRRDLGLDCDEHSSESRCCRYPLTVDFEAFGWDWIIAPKRYKANYCSGQCEYMFMQKYPHTHLVQQANPRGSAGPCCTPTKMSPINMLYFNDKQQIIYGKIPGMVVDRCGCS [N297D]
